Measurements taken from patent US20240052042A1 (Novartis, published 2024).
Like-named read-outs stand apart in the source and are kept apart here.

T1: human NPR3 (counter target) (human, UniProt P17342 27-481, limits assumed)
T1 construct: Pannings used hNPR3-hFc; also called hNPR3; hNPR3-hFc
T1 sequence (looked up): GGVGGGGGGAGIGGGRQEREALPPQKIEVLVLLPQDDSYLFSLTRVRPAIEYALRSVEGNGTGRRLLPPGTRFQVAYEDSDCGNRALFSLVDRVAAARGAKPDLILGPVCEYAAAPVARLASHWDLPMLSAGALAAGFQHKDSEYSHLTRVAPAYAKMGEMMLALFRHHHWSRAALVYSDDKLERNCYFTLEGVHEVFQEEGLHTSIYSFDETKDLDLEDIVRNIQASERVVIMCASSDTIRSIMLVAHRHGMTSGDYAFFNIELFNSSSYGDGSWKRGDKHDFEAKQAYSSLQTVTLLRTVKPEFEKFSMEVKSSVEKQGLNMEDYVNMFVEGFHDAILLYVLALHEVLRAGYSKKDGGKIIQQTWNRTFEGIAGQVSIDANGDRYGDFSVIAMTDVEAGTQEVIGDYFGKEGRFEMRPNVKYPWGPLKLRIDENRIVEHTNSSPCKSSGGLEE

T2: human NPR3 in the presence of ANP (human, UniProt P17342 27-481; P01160 124-151, limits assumed)
T2 construct: also called hNPR3 + 100 nM ANP
T2 sequence (looked up): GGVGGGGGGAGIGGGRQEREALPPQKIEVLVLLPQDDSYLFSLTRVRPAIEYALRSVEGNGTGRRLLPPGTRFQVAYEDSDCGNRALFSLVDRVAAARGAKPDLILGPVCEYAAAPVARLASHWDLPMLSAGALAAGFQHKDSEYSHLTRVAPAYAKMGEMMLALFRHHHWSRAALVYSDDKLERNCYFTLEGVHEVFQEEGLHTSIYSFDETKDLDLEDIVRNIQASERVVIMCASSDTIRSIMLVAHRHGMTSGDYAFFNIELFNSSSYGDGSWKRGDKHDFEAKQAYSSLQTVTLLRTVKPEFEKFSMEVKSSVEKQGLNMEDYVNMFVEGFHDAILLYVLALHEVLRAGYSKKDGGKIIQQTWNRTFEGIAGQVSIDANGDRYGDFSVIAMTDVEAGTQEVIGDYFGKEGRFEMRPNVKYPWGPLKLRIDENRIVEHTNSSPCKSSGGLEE
T2 sequence (peptide, looked up): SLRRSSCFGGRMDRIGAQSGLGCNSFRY

T3: human NPR1 on CHO-K1 cells in the presence of ANP (human, UniProt P01160 124-151)
T3 construct: also called hNPR1 CHO K1 + 100 nM ANP
T3 sequence: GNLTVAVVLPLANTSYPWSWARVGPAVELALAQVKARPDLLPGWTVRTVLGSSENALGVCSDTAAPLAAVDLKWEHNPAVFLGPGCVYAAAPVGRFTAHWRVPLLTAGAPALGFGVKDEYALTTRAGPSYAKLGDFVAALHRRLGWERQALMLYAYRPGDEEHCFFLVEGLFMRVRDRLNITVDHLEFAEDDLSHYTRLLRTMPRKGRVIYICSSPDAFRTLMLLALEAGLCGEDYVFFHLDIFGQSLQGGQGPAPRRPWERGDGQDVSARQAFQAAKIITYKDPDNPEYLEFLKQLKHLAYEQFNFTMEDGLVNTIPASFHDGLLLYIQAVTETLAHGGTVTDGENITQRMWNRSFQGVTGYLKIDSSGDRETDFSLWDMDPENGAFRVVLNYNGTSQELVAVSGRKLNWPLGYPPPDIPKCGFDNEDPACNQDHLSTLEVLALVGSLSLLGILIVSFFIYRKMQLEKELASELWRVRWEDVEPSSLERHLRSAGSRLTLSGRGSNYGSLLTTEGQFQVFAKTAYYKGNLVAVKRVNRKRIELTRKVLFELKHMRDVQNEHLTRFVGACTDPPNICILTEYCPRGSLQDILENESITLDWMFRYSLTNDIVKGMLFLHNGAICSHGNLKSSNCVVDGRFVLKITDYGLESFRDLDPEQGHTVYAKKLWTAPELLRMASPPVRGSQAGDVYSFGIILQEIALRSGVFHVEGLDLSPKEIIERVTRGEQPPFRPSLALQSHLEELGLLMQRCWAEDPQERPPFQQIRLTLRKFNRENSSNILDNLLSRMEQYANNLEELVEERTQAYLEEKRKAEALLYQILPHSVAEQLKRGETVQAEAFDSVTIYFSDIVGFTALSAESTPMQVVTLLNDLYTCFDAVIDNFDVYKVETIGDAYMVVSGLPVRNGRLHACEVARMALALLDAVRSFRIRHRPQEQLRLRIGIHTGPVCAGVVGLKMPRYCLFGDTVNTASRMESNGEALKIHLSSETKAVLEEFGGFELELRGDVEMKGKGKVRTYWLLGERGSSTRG
T3 sequence (peptide): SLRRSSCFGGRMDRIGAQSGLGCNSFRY

T4: hNPR1-ANP complex (human, UniProt P01160 124-151, limits assumed)
T4 construct: hNPR1 antigen in the presence of ANP; also called hNPR1 + 100 nM ANP
T4 sequence: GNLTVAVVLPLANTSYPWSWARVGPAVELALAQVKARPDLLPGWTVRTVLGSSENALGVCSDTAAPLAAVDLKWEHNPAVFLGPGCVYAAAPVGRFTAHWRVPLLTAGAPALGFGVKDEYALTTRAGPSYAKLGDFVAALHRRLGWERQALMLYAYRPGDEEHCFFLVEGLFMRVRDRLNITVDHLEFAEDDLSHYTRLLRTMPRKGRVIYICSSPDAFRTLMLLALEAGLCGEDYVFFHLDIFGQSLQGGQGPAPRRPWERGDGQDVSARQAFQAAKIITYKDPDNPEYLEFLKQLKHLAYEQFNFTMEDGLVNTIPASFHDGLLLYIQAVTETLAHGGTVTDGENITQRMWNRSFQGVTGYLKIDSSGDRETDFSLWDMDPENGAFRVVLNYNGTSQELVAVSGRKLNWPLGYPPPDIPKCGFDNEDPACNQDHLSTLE
T4 sequence (peptide): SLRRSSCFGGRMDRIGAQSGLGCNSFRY


Experiments:
[1] = target: T1, human NPR3 (counter target); experiment: ELISA, IgG titrated on coated antigen, fluorescence [Cont.]
Method: Furthermore, the clones were tested via ELISA for binding to the following antigens: human NPR1, constitutively active human NPR1 mutant (W74R), rat NPR1, human NPR3 (counter target), each in the absence and presence of ANP, and BSA. The clones were also analyzed by flow cytometry for binding to human NPR1 expressing CHO K1 cells in absence and presence of ANP (100 nM) and to parental CHO K1 cells.

[2] = target: T2, human NPR3 in the presence of ANP; experiment: ELISA, IgG titrated on coated antigen with ANP (250 fold molar excess), fluorescence [Cont.]
[3] = target: T3, human NPR1 on CHO-K1 cells in the …; experiment: flow cytometry (FL2-H) on hNPR1 CHO-K1 cells with saturating ANP, IgG titrated; control parental CHO-K1 [Cont.), panel XX06]
[4] = target: T4, hNPR1-ANP complex; experiment: FRET ANP competition assay, IgG titrated on hNPR1 with Cy5-labeled ANP; negative values mean more ANP signal [Cont.), panel XX06]
Method: The same 31 IgGs were tested for ANP competition using a Fluorescence Resonance Energy Transfer (FRET)-based assay in which the NPR1-specific antibodies competed with ANP for binding to NPR1. In this FRET based assay (see FIG. 3), Eu-labeled Streptavidin (for measurement of IgGs) or Eu-labeled anti-hFc antibody (for measurement of FabCys) was used as an energy donor, while Cy5-labeled ANP was used as an acceptor (for all measurements). The resulting fluorescent signal was decreased by ANP-competitive antibodies. The assay was performed as follows: antibodies were mixed with NPR1 and incubated for 5 minutes at room temperature. After addition of the Eu-labeled donor and incubation for 30 minutes at room temperature, the Cy5-ANP solution was added. After a further 60-minute incubation, readout was performed using a TECAN Infinite M1000 Pro using an excitation wavelength of 317 nm and an emission wavelength of 665 nm. Percentage of ANP competition was calculated according to the following formulae: […]

[5] = target: T1, human NPR3 (counter target); experiment: ELISA, IgG titrated on coated antigen, fluorescence [Cont.]; remark: listed apart in the source
[6] = target: T2, human NPR3 in the presence of ANP; experiment: ELISA, IgG titrated on coated antigen with ANP (250 fold molar excess), fluorescence [Cont.]; remark: listed apart in the source
[7] = target: T3, human NPR1 on CHO-K1 cells in the …; experiment: flow cytometry (FL2-H) on hNPR1 CHO-K1 cells with saturating ANP, IgG titrated; control parental CHO-K1 [panel XX03]

Binder	binding result [1]	binding result [2]	EC50 (read off the curve) [3]	EC50 (read off the curve) [4]	binding result [5]	binding result [6]	EC50 (read off the curve) [7]
XX06 (IgG format) (antibody, V domains shown) VH: QVQLLESGGGLVQPGGSLRLSCAASGFTFSSYWMNWVRQAPGKGLEWVSAISSDGSYTYYADSVKGRFTISRDNSKNTLYLQMNSLRAEDTAVYYCARDRYSMIYSYGAGAFDYWGQGTLVTVSS VL: DIQMTQSPSSLSASVGDRVTITCRASQGISSYLAWYQQKPGKAPKLLIYTASTLQSGVPSRFSGSGSGTDFTLTISSLQPEDFATYYCQQTWRKPRTFGQGTKVEIK	no binding (tested: 200 nM)	no binding (tested: 200 nM)	~2 nM	~0.2 nM			
XX03 (IgG format) (antibody, V domains shown) VH: EVQLLESGGGLVQPGGSLRLSCAASGFTFSSYWMNWVRQAPGKGLEWVSVIESKGNYIFYADSVKGRFTISRDNSKNTLYLQMNSLRAEDTAVYYCARDRYSMIYSYGAGAFDYWGQGTLVTVSS VL: DIQMTQSPSSLSASVGDRVTITCRASQGISSYLAWYQQKPGKAPKLLIYTASTLQSGVPSRFSGSGSGTDFTLTISSLQPEDFATYYCMQSYEKPRTFGQGTKVEIK					no binding (tested: 200 nM)	no binding (tested: 200 nM)	~1 nM
